± gives the uncertainty stated by the source.
Test: self-splicing fitness, log relative to wild type (ln ratio); higher = more splicing; Tetrahymena group I intron in knt gene, E. coli kanamycin selection, DiMSum; sequences stand for … in CUCUCU…GGAGGGAAAAGUUAUCAGGCAUGCACCUGGUAGCUAGUCUUUAAACCAAUAGAUUGCAUCGGUUUAAAAGGCAAGACCGUCAAAUUGCGGGAAAGGGGUCAACAGCCGUUCAGUACCAAGUCUCAGGGGAAACUUUGAGAUGGCCUUGCAAAGGGUAUGGUAAUAAGCUGACGGACAUGGUCCUAACCACGCAGCCAAGUCCUAAGUCAACAGAUCUUCUGUUGAUAUGGAUGCAGUUCACAGACUAAAUGUCGGUCGGGGAAGAUGUAUUCUUCUCAUAAGAUAUAGUCGGACCUCUCCUUAAUGGGAGCUAGCGGAUGAAGUGAUGCAACACUGGAGCCGCUGGGAACUAAUUUGUAUGCGAAAGUAUAUUGAUUAGUUUUGGAGUACUCGUGGUCG
Procedure, shortened: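 Six replicate transformations of E. coli BL21(DE3) with a pET-22b(+) library were grown overnight at 37°C or 30°C. The library randomised all eight P1ex-region intron nucleotides, the intron lying in the knt kanamycin-resistance gene, and plates were LB agar with or without 25 μg/mL kanamycin plus 100 μg/mL carbenicillin, 50 μM IPTG and 0.2% rhamnose. Pooled colonies were amplicon-sequenced on an Illumina HiSeq 2500, and fitness is the DiMSum error-weighted combination of wild-type-normalised replicate fold changes, kanamycin versus none.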

Sequence	self-splicing fitness (ln) (30 °C)	self-splicing fitness (ln) (37 °C)
CCCGAGCAAUAUUACGACCU	-2.45 ± 0.31	-2.19 ± 0.32
CCCGAGCAAUAUUACGAGGC	-2.89 ± 0.28	-2.47 ± 0.27
CCCGAGCAAUAUUACGAGUU	-4.2 ± 0.19	-2.29 ± 0.17
CCCGAGCAAUAUUACGAUAG	-3.17 ± 0.22	-2.02 ± 0.2
CCCGAGCAAUAUUACGAUAU	-4.76 ± 0.45	-2.2 ± 0.22
CCCGAGCAAUAUUACGCCUA	-1.85 ± 0.25	-2.94 ± 0.35
CCCGAGCAAUAUUACGCCUU	-2.99 ± 0.2	-1.56 ± 0.34
CCCGAGCAAUAUUACGCGUC	-5.24 ± 0.32	-2.91 ± 0.23
CCCGAGCAAUAUUACGCUAU	-4.39 ± 0.34	-2.49 ± 0.2
CCCGAGCAAUAUUACGCUCG	-3.62 ± 0.22	-2.92 ± 0.27
CCCGAGCAAUAUUACGGAUA	-3.04 ± 0.22	-2.89 ± 0.27
CCCGAGCAAUAUUACGGAUC	-3.92 ± 0.46	-2.06 ± 0.27
CCCGAGCAAUAUUACGGCCU	-2.93 ± 0.33	–
CCCGAGCAAUAUUACGGGCG	-3.03 ± 0.19	-2.47 ± 0.25
CCCGAGCAAUAUUACGGGCU	-3.98 ± 0.26	-2.65 ± 0.21
CCCGAGCAAUAUUACGGGGU	-2.92 ± 0.16	-2.93 ± 0.17
CCCGAGCAAUAUUACGGUAC	-4.04 ± 0.22	-2.85 ± 0.21
CCCGAGCAAUAUUACGGUGG	-3.06 ± 0.13	-3.2 ± 0.18
CCCGAGCAAUAUUACGUCCU	-3.97 ± 0.39	-2.75 ± 0.39
CCCGAGCAAUAUUACGUGCG	-4.04 ± 0.21	-2.82 ± 0.21
CCCGAGCAAUAUUACGUUCU	-3.61 ± 0.25	-2.1 ± 0.25
CCCUAGCAAUAUUACGAAAA	-2.83 ± 0.2	-3.22 ± 0.27
CCCUAGCAAUAUUACGAAAU	-2.88 ± 0.21	-2.59 ± 0.31
CCCUAGCAAUAUUACGAAGU	-4.34 ± 0.28	-2.89 ± 0.27
CCCUAGCAAUAUUACGACCG	-1.21 ± 0.2	-2.17 ± 0.34

Sequence	self-splicing fitness (ln) (30 °C)	self-splicing fitness (ln) (37 °C)
CCCUAGCAAUAUUACGACGA	-3.12 ± 0.24	-2.61 ± 0.27
CCCUAGCAAUAUUACGAGGC	-4.41 ± 0.42	-4.06 ± 0.18
CCCUAGCAAUAUUACGAGUA	-3.32 ± 0.29	-2.72 ± 0.33
CCCUAGCAAUAUUACGAUUU	-3.35 ± 0.17	-1.91 ± 0.17
CCCUAGCAAUAUUACGCGAU	-3.74 ± 0.18	-2.77 ± 0.2
CCCUAGCAAUAUUACGCGCU	–	-1.78 ± 0.47
CCCUAGCAAUAUUACGCUAU	-3.92 ± 0.43	–
CCCUAGCAAUAUUACGCUUU	-4.12 ± 0.22	-2.49 ± 0.18
CCCUAGCAAUAUUACGGGUG	-2.51 ± 0.11	-0.894 ± 0.089
CCCUAGCAAUAUUACGGUUA	-4.05 ± 0.35	-2.71 ± 0.21
CCCUAGCAAUAUUACGUACC	-1.72 ± 0.18	-1.05 ± 0.3
CCCUAGCAAUAUUACGUAUC	–	-3.37 ± 0.39
CCCUAGCAAUAUUACGUCAU	-2.27 ± 0.13	-3.11 ± 0.24
CCCUAGCAAUAUUACGUCCA	-2.95 ± 0.23	-2.83 ± 0.31
CCCUAGCAAUAUUACGUGGG	-3.48 ± 0.1	-2.54 ± 0.14
CCCUAGCAAUAUUACGUUCA	-3.05 ± 0.19	-2.7 ± 0.2
CCCUAGCAAUAUUACGUUCG	-3.63 ± 0.27	-2.64 ± 0.33
CCGAAGCAAUAUUACGAAAG	-1.21 ± 0.073	-0.965 ± 0.092
CCGAAGCAAUAUUACGAGAA	-2.48 ± 0.47	-1.17 ± 0.49
CCGAAGCAAUAUUACGAGCC	-3.7 ± 0.26	-2.8 ± 0.23
CCGAAGCAAUAUUACGAGGC	-4.67 ± 0.42	-3.39 ± 0.29
CCGAAGCAAUAUUACGAUCU	-3.36 ± 0.34	-2.85 ± 0.29
CCGAAGCAAUAUUACGCAUU	-3.01 ± 0.2	-3.77 ± 0.29
CCGAAGCAAUAUUACGCUGG	-2.83 ± 0.22	-3.49 ± 0.35

— the supplement of paper PMC7877785
